From patent publication US20250340602A1

Target: Gal80p (Saccharomyces cerevisiae) (UniProt P04387)
Test: cell-based or functional assay

Chain of UniProt P04387 (P04387 whole entry): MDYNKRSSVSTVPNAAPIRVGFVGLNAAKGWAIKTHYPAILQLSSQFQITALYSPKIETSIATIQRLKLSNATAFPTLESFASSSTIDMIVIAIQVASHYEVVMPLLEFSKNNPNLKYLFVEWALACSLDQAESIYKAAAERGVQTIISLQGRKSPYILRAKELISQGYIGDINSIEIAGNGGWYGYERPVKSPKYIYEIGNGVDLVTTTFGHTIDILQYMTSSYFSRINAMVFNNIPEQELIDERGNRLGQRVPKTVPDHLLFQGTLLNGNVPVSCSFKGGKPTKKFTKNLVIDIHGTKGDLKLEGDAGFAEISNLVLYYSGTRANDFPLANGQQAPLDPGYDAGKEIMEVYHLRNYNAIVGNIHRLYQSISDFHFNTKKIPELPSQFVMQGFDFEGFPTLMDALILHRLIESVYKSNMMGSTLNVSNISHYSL

GAL1p-EGFP fluorescence during growth on galactose in strain SFS6: > 5 fold
Substance: Gal3p^MC (metabolic coordinator) (from UniProt P13045 1-520)
